Assay [1] has as its target T1, Norwalk virus (NV, GI.1) recombinant virus-like particles (capsid protein VP1) (Norwalk virus, UniProt Q83884 1-530).
T1 construct: also called NV rVLP; NV-VLP
T1 sequence: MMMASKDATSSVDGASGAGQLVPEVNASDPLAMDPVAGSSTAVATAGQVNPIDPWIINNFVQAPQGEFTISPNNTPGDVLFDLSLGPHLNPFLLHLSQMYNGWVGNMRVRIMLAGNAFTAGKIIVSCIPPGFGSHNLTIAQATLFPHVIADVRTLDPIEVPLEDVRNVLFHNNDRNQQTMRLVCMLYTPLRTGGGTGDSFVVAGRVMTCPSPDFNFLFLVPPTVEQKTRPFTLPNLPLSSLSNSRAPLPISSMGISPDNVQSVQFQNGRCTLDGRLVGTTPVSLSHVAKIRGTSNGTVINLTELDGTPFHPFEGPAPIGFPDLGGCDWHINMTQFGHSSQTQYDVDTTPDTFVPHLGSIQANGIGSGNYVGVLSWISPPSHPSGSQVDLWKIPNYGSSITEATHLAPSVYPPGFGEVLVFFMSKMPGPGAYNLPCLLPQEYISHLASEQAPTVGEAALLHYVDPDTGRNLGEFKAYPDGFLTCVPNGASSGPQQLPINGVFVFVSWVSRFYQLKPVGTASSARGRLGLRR
Kind of assay: SPR (Biacore 1000), NV rVLP amine-coupled to CM5 chip, Fab as analyte 1-10 nM, Langmuir model. On the technique in general: SPR reads the build-up and loss of mass on a sensor chip optically.

Another assay has as its target T2, bovine serum albumin (bovine, UniProt P02769 25-607).
T2 construct: Control antigen; also called BSA
Description: ELISA, antigen on the solid phase, soluble Fab.

In another assay the target is T3, NV VP1 G365N mutant (Norwalk virus, UniProt Q83884 1-530).
T3 construct: whole, on cells; Expressed in transfected Vero cells, methanol-fixed, immunofluorescence
T3 sequence (looked up): T1 sequence with G365N
Description: immunofluorescence on transfected Vero cells.

Assay [2] addresses T4, NV VP1 G365N/V370I double mutant (Norwalk virus, UniProt Q83884 1-530).
T4 construct: whole, on cells; Expressed in transfected Vero cells, methanol-fixed, immunofluorescence
T4 sequence (looked up): T1 sequence with G365N, V370I
Description: immunofluorescence on transfected Vero cells.

Assay [3] addresses T5, NV VP1 G365N/I376V double mutant (Norwalk virus, UniProt Q83884 1-530).
T5 construct: whole, on cells; Expressed in transfected Vero cells, methanol-fixed, immunofluorescence
T5 sequence (looked up): T1 sequence with G365N, I376V
Description: immunofluorescence on transfected Vero cells.

Assay [4] has as its target T6, NV VP1 G365N/V370I/I376V triple mutant (Norwalk virus, UniProt Q83884 1-530).
T6 construct: whole, on cells; Expressed in transfected Vero cells, methanol-fixed, immunofluorescence
T6 sequence (looked up): T1 sequence with G365N, V370I, I376V
Kind of assay: immunofluorescence on transfected Vero cells.

The text below walks through data of patent publication US20160009788A1 (UNITED STATES OF AMERICA AS REPRESENTED BY THE SECRETARY …, published 2016).

Substitutions are numbered along the chain they refer to.

T2 sequence (P02769 25-607 limits assumed): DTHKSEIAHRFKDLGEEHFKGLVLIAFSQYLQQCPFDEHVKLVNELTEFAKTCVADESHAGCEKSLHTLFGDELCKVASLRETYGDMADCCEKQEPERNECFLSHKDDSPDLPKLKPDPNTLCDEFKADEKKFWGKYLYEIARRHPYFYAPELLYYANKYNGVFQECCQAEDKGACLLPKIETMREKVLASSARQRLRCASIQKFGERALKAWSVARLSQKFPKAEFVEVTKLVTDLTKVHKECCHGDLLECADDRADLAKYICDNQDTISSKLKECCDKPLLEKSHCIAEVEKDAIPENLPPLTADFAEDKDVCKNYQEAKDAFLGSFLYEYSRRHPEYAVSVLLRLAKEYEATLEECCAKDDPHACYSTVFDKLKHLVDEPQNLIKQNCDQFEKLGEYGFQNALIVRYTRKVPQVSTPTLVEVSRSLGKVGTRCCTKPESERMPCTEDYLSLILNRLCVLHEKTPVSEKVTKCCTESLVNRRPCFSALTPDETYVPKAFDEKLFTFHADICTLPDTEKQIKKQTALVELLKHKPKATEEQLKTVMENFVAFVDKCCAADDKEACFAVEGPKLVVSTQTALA

B1: anti-NV Fab G4 (Fab, V domains shown)
VH: EVQLEESGGGLVKPGGSLRLSCAASGFTFSHYVMYWVRQAPEKGLEWVSTISGSGSSTWYPDSVKGRFTVSRDNSKNTLYLQMNSLRGDDTAVYYCARLQGQLVYWGLGTLVTVS
VL: ELQMTQSPSTLSASVGDRVTITCRASQGISSWLAWYQQKPGRAPKLLIYKSSTLESGVPSRFSGSGSGTEFTLTISSLQPDDFATYFCQQYSSNPPLTFGGGTKVEIKR
notes: also called Norwalk Fab G4
B1: the Kd (commonly the equilibrium constant for the complex coming apart) in assay [1] was 0.974 nM. For the same molecule, the off-rate constant (koff) (as a rule, the first-order rate constant of dissociation) in assay [1] worked out at 0.00142 s⁻¹. Also, in assay [1], the kon (usually the second-order rate constant of association) amounted to 1.46e+06 M⁻¹ s⁻¹. Also, the binding result in the assay with bovine serum albumin is given as “no binding”; in the assay with NV VP1 G365N mutant, “no binding (tested: 5 ug/mL)”; in assay [2], “no binding (tested: 5 ug/mL)”; in assay [3], “no binding (tested: 5 ug/mL)”; in assay [4] it was “no binding (tested: 5 ug/mL)”.
